From US8337848

Target: amyloid precursor protein (APP), full length (106 kDa), from MOG-G-UVW cell lysate (human) (UniProt P05067)
Experiment: competition sandwich ELISA on APP from MOG cell lysate; competitor: APP DuoSet detection antibody; irrelevant IgG at 20 µg/ml

UniProt P05067, sequence (P05067 18-770): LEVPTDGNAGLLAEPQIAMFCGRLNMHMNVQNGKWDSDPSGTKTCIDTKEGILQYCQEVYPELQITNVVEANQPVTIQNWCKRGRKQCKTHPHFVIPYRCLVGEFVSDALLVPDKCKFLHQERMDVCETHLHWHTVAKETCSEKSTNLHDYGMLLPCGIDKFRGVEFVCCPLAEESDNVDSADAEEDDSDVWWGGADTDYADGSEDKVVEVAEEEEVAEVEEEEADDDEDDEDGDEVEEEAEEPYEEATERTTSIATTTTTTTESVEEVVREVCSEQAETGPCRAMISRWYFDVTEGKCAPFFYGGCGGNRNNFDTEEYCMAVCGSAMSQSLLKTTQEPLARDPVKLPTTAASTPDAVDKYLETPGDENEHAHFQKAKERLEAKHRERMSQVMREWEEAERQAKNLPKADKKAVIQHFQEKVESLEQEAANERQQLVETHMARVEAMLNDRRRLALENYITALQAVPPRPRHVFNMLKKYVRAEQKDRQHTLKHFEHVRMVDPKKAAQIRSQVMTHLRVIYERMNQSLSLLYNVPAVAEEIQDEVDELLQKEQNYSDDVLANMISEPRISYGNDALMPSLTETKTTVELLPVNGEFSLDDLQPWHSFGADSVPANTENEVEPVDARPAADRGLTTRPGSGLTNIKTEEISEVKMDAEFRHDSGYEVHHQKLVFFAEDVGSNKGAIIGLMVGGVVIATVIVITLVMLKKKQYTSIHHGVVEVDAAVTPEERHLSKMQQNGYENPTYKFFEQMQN

## irrelevant mouse IgG antibody (Perbio Science)
  % reduction of the binding of the second commercial antibody: 3.3%
